# Measurements from the nanobody polyreactivity screen of Harvey et al. (2022).
# Assay: yeast display, Sf9 membrane polyspecificity reagent, FACS + sequencing; frameworks hold sequencing errors
# Method in brief: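 Nanobodies from a synthetic yeast display library (Saccharomyces cerevisiae BJ5465), induced 36–48 hours with galactose, were stained 1 hour at 4 °C with 10% biotinylated, detergent-solubilized Sf9 membrane reagent, enriched on streptavidin microbeads, then FACS-sorted. Anti-HA (expression) and streptavidin (reagent binding) fluorescence set low and high (top ~1%) gates. Polyreactivity labels come from the gate of origin. Genes were colony-PCR amplified, MiSeq 2 × 250 sequenced and filtered by CDR length.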
row,Sequence,polyreactivity (PSR sort gate)
1,QVQLVESGGGLVQAGGSLRISCAASGNIFGIYTMGWYRQAPGKEREFFAVISLSGTSTYYADSVKGRFTISRDNAKNTVYLQMNSLKPEDTAVYYCNARTPHNKGRRRAYDYWGLGTQVTVSS,high polyreactivity
2,QVQLVESGGGLVQAGGSLRISCAASGNIFPYYAMGWYRQAPGKERELVATITRGGRTNYADSVKGRFTISRDNAKNTVYLQMNSLKPEDTAVYYCASYSYTLTYRFDYWGQGTQVTVSS,low polyreactivity
3,QVQLVESGGGLVQAGGSLRISCAASGNIFSVNAMGWYRQAPGKEREFVAAISGSGGSTYYADSVKGRFTISRDNAKNTVYLQMNSLKPEDTAVYYCAKRWYHPSSLPRYVFRGVDYWGQGTQVTVSS,high polyreactivity
4,QVQLVESGGGLVQAGGSLRISCAASGRIFANYAMGWYRQAPGKEMELVAAITTNGGGTYYADSVKVRFTISRDNAKNTVYLQMKSLIPEDTAVYYCIAVKQRSSIFDYWGQGTQLTVSS,low polyreactivity
5,QVQLVESGGGLVQAGGSLRISCAASGRIFNINAMGWYRPAPGKERELVAAITWRSGSTYYADSVKGRFTISRDNAKNTVYLHMNSLKPEDTAVYYCAADFSQTRRPIRFYYWGQGSQVTVSS,high polyreactivity
6,QVQLVESGGGLVQAGGSLRISCAASGRIFSFYAMGWYRQAPGKERELVAAISYSDGSTYYADSVKGRFTISRDNAKNTVYLQMNSLKPEDTAVYYCAKYGYDHDYNYWGQGTQVTVSS,low polyreactivity
7,QVQLVESGGGLVQAGGSLRISCAASGRIFSGNAMGWYRQAPGKERELVAAISSGGSTYYADSVKGRFTISRYNAMNTVFLQMNILKPEDTAVYYCKKSRGRKWRGNYSVVKLLMGYWGQGSQVTVSS,low polyreactivity
8,QVQLVESGGGLVQAGGSLRISCAASGRIFSYNDMGWYRPAPGKERELVAAITGGGSTNYADSVKGRFTISRDNAKNTVYLQMNSLKPEDTAVYYCAARSWSDKYWGQGTQVTVSS,high polyreactivity
9,QVQLVESGGGLVQAGGSLRISCAASGRIFVSNAAMGWYIQAPGKESELVAAITSRGGRTTYADSVKGRFTSSRDNAKNTVYLQMNSLKPEDTAVYYCAARVRGYDWVRGSPFHHNYWGQGTQVTVSS,high polyreactivity
10,QVQLVESGGGLVQAGGSLRISCAASGRIFWTYAMGSYRQAPGKERELVAAITWRGGSTSYADSVKGRFTISRDNAKNTVYLQMNSLKPEDTAVYYCAADTYSYLRGTYEYDYWGQGTQVTVSS,high polyreactivity
11,QVQLVESGGGLVQAGGSLRISCAASGRIFYCYVMGWYRQAPGKERELVAAINLSGTSTYYADSVKGRFTISRDNAKNTVYLQMNSLKPEDTAVYYCAADQVGWTYDYWGQGTQVTVSS,low polyreactivity
12,QVQLVESGGGLVQAGGSLRISCAASGRILGKYAMGWYRQAPGKESELVAAIRLRGGSTYYADSVKGRFTISRDNEKNSVYLQMNSLKPEDTAVYYCAARYWDRSQAYNDWGQGTQVTVSS,high polyreactivity
13,QVQLVESGGGLVQAGGSLRISCAASGRISVFNVMGWYIQAPGKERELVAAITSGGSTKYADSVKGRFTISRDNAKNTVYLQMNSLKPEDTAVYYCAALYQFHGKIWDGDYWGQGTQVTVSS,low polyreactivity
14,QVQLVESGGGLVQAGGSLRISCAASGRIYYRYAMGWYRQAPGKERELVASISGSGGRTYYADSVKGRFTISRDNAKNTVYLQMNSLKPEDTAVYYCAARIRPSYDWGQGTQVTVSS,high polyreactivity
15,QVQLVESGGGLVQAGGSLRISCAASGRNYSYYAMGWYREAPGKERELVAAITYSGGSTYYADSVKGRFTITRDNAKNTVYLQMNSLKPEDTAVYYCAAGLSIYYWGQGTQVTVSS,low polyreactivity
16,QVQLVESGGGLVQAGGSLRISCAASGRSFGVNAMGWYRQAPGKERELVAVISSGGSTYYADSVKVRFTISRDNAKNTVYLQMNSLKPEDTAVYYCNAVFGRWFPYNLSDYWGQGTQVTVSS,low polyreactivity
17,QVQLVESGGGLVQAGGSLRISCAASGRTFALNAMGWYRQAPGKERELVAAISSGGSTYYADSVKGRFTISRDNAKNTVYLQMNSLKPEDTAVYYCAKTSFKYRWSYPVISMDYWGQGTQVTVSS,high polyreactivity
18,QVQLVESGGGLVQAGGSLRISCAASGRTFDHYAMGWYRPAPGKERELVAAISFSGGSTYYADSVKGRLTISRDNAKNTVYLQMNRLKPEDTAVYYCAADYAYWLSGYDYWGQGTQVTVSS,low polyreactivity
19,QVQLVESGGGLVQAGGSLRISCAASGRTFDYNAMGWYRQAPGKERELVAAIRFGGGSTYYADSVKGRFTISRDNAKNTVYFQMNSLKPEDTAVYYCNASPLWIGWEIVPVGSSHYDYWGQGTQVTVSS,low polyreactivity
20,QVQLVESGGGLVQAGGSLRISCAASGRTFFFNAMGWYRQAPGKERELVAAISRTGRTNYADSVKGRFTISRDHAKNTVYLQMNSLKPEDTAVYYCAKTSYYLFGYWGHGTQVTVSS,high polyreactivity
21,QVQLVESGGGLVQAGGSLRISCAASGRTFGANAMGWYRQAPGKERELVAGITSSGGSTSYADSVKGRFTISRDNAKNTVYLQMNSLKPEDTAVYYCAKDVYQHIFDVILGGYDSWGLGTQVTVSS,low polyreactivity
22,QVQLVESGGGLVQAGGSLRISCAASGRTFGIYAMGWYIKGPGKERELVADITIGGSTFYADSVKGRFTISRDNAKNTVYLPMNSLKPEDTAVYYCYDDVVVQYYFTYYRFFTYDYWGQGTQVTVSS,low polyreactivity

row,Sequence,polyreactivity (PSR sort gate)
1,QVQLVESGGGLVQAGGSLRISCAASGRTFGYYGMGWSRQAPGKERELVAGITSRGGSTYYADSVKGRFTISRDNAKNTVYLQMNSLKPEDTAVYYCNAQYARKYGFWTAYDYWGQGTQVTVSS,high polyreactivity
2,QVQLVESGGGLVQAGGSLRISCAASGRTFKNYSMGWYRQAPGKERELVAAITSGGITNYADSVKGRFTISRDNAKNTVYLQMNRLKPEDTAVYYCNTRRGWRDFDYWGQGTQVTVSS,low polyreactivity
3,QVQLVESGGGLVQAGGSLRISCAASGRTFRPYPMGWYRQAPGKDRELVAAIDSSGTSTYYADSVKGRFTISRDNAKNTVYLQMNSLKPEDTAVYYCAKAWPDHWYSRYDYWGQGTQVTVSS,low polyreactivity
4,QVQLVESGGGLVQAGGSLRISCAASGRTFVGNAMGWYRQAPGKERELVAAMTLSDGSTYYADSVKGRFTISRDIAMNTVYLQMNSLKPEDTAVYYCNAGDGPDEEYDYWGQVTQVTVSS,low polyreactivity
5,QVQLVESGGGLVQAGGSLRISCAASGRTFYANAMGWYRQAPGKERELVAAISSNGGSTYYADSVKGRFTISRDNAKNTVYLQMNSLKPEDTAVYYCAVVSRYIAWRKYDYCGQGTQVTVSS,high polyreactivity
6,QVQLVESGGGLVQAGGSLRISCAASGRTFYGYTMGWDRQAPGKERELVAAISRNGASTFYADSVKGRFTISRDNAKNTVYLQMNSLKPEDTAVYYCNARSWRHTDTSFEYWGQGTQVTVSS,high polyreactivity
7,QVQLVESGGGLVQAGGSLRISCAASGRTFYINAMGWYRQAPGKVWELVASISRSGGGTYYADSVKGRFTISRDNAKNNVYLQMNCLKPEDTAVYYCAAYSWSYSGYNFWGQGTQVTVSS,high polyreactivity
8,QVQLVESGGGLVQAGGSLRISCAASGRTFYQYDMGWYRQAPGKERELVAAIDWSGGSTYYADSVKGRFTISRDNAKNTVYLQMNSLKPEDTAVYYCNADAYPHPVVGYDYWGQGTQVTVSS,low polyreactivity
9,QVQLVESGGGLVQAGGSLRISCAASGSIFATYAMGWYRQAPGKERELVAAISWSSGSTYYADSVKGRFTISRDNAKNTVYLQMNSLNPEDTAVYYCNKDWLAYDSLRVTSTIAFDYWGQGSQVTVSS,low polyreactivity
10,QVQLVESGGGLVQAGGSLRISCAASGSIFDTNPMGWYRQAPGKERELVAAITSSGASTYYADSVKGRFTISRDNAKNTVYLQMNSLKPEDTAVYYCAADGAVDGGYWGQGTQVTVSS,low polyreactivity
11,QVQLVESGGGLVQAGGSLRISCAASGSIFGGYAMGWYRQAPGKERELVAAISSGGSTYYADSVKGRFTISRDNAKNTVYLQMNSLKPEDTAVYYCATSTYAYRRNSYYYTRPRFGYWGQGTQVTVSS,high polyreactivity
12,QVQLVESGGGLVQAGGSLRISCAASGSIFGYYAMGWYRQAPGKERELVAAITRSGGSTYYADSVKGRFTISRDNAKNTVYLQMNSLKPEDTAVYYCAAYYGHLYYTFDYWGQGTQVTVSS,low polyreactivity
13,QVQLVESGGGLVQAGGSLRISCAASGSIFHDNAMGWYRQAPGKERELVAASTTSGGNTYYADSVKGRFTISRDNAKNTVYLLMNSLKPEDTAVYYCAAGQSVFASWLDNGWSAYTYYYWGQGTQVTVSS,low polyreactivity
14,QVQLVESGGGLVQAGGSLRISCAASGSIFLLYTMGWYRQAPGKEREMVATITSSGGSTYYADSVKGRFTISRDNAKNTVYLHMNSLKPEDTAVYDCNAVGSTWGSFVRYGAQYDYWGQGTEVTVSS,low polyreactivity
15,QVQLVESGGGLVQAGGSLRISCAASGSIFQFNAMGWSRQAPGKERELVASISASGGSTYYADSVKGRFTISRDNAKNTVYLQMNSLKPEDTAVYYCAADFIRSWFIWRGSFDYWGLGTQVTVSS,low polyreactivity
16,QVQLVESGGGLVQAGGSLRISCAASGSIFQGYAMGWYRQAPGKERELVATITWSGGSTYYADSVTGRFTISRDNAKNTVYLQMNSLKPEETAVYYCNADSNGYYLWNYYGMYDYWGQGTEVTVSS,low polyreactivity
17,QVQLVESGGGLVQAGGSLRISCAASGSIFRRNAMGWYRQAPGKERELVATITSDGSTDYADSVKGRFTISRDNAKYTVYLQMNRLKPEDTVYYCAAGRTPYWHATFGYWGQGTQVTVSS,low polyreactivity
18,QVQLVESGGGLVQAGGSLRISCAASGSNFASYAMGWYRQAPGKERELVSVITSGGRTYYADSVKGRFTISRDNAKNTVYLQMNSLKPEDTAVYYCKAYLFFLNRVWSFDYWGQGTQVTVSS,high polyreactivity
19,QVQLVESGGGLVQAGGSLRISCAASGSNFNPYDMGGYRQAPGKESELVAAIRTAGSTYYADSVKGRFTISRDNAKNTVYLQMISLNPEDTAVYYCNADEGFLYSAYEYDYWGQGTQVTVSS,low polyreactivity
20,QVQLVESGGGLVQAGGSLRISCAASGSNFTQYDMGWYRQAPGKERELVAAITSGGSTDYADSVKGRFTISRDNAKNTVYLQMNSLKPEDTAVYYCNAEAYPYWYRGASREYDYWGQGTQVTVSS,low polyreactivity
21,QVQLVESGGGLVQAGGSLRISCAASGSTFGRNAMGWYSQAPGKERELVAAISSGGSTSYADSVKGRFTISRDNAKYTVYLQMNSLKPEDTAVYYCAAHSVGSQYDYWGQGTQVTVSS,low polyreactivity
